Blank lines part the entries; values can stand above or below the molecule they belong to. Square brackets hold non-standard residues; d marks the D form. Ends that are not written are not given here.
Assays:
human plasma proteins = assay: plasma protein binding, dialysis 4 h at 37 C, 2 µM, LC-MS/MS; control
[1] = target: mouse plasma proteins (CD-1 mouse); assay: as above
[2] = target: Human FOLR1 on OVCAR3 cells (human) (UniProt P15328); assay: flow cytometry on OVCAR3 cells after 1 h at 37 C, before acid wash
[3] = target: Human FOLR1 on OVCAR3 cells (human) (UniProt P15328); assay: flow cytometry on OVCAR3 cells after 1 h at 37 C, after acid wash (internalized fraction)
[4] = target: T1, Folate-hshta-Lys(IPBA)-Gly-Phe-Lys(DOTA) (compound #1307) (not fully specified)
T1 chain: HSHTAKGFK

[5] = target: T2, Fol-hshta-Lys(4-MPBA)-Gly-Phe-Lys(AO) (compound #3304)
T2 chain: HSHTAKGFK

[6] = target: T3, Folate-hshta-Lys(IPBA)-M-V-Lys(DOTA) (compound #1306) (not fully specified)
T3 chain: HSHTAKMVK

[7] = target: T4, Fol-hshta-Lys(4-MPBA)-Gly-Phe-Lys(PEG3-DOTA) (compound #3302) (not fully specified)
T4 chain: HSHTAKGFK

[8] = target: T5, Folate-hshta-G-F-K(DOTA)-OH (Indi 7327, compound #7327) (not fully specified)
T5 chain: HSHTAGFK

[9] = target: T6, Fol-hshta-Gly-Phe-Lys(AO) (compound #3303) (not fully specified)
T6 chain: HSHTAGFK

[10] = target: T7, Fol-hshta-PEG3-Lys(DOTA) (compound #1189) (not fully specified)
T7 chain: HSHTAK

[11] = target: T8, Fol-hshta-PEG3-Gly-Phe-Lys(DOTA) (compound #6307)
T8 chain: HSHTAGFK

[12] = target: T9, Folate-hshta-Lys(MPBA)-Gly-Phe-Lys(DOTA) (compound #6305) (not fully specified)
T9 chain: HSHTAKGFK

[13] = target: T10, Folate-hshta-PEG3-Lys(MPBA)-Lys(DOTA) (compound #2809) (not fully specified)
T10 chain: HSHTAKK

Human FOLR1 on OVCAR3 cells (human), sequence (P15328 25-234 limits assumed): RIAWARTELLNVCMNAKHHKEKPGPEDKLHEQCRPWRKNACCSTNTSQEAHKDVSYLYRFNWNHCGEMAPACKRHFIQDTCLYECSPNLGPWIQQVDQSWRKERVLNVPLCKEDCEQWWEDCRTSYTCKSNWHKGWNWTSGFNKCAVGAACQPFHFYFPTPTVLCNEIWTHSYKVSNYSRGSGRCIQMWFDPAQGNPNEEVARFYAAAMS

Plasma % Bound (human plasma proteins): 59.4% | Plasma % Bound [1]: 62.4%
Molecule: Octreotide Acetate (peptide)

percentage of positively stained cells [2]: 73.4% | percentage of positively stained cells [3]: 54.2%
B1: DyLight650-labeled folate-hshta Nterm heterobiligand (peptide)
peptide: folate-[dH][dS][dH][dT][dA]
modifications: also: triazole macrocycle via Pra and Az4, places not given here, DyLight 650 label, site not given here

B2: human recombinant neprilysin (NEP) (protein)
chain: YDDGICKSSDCIKSAARLIQNMDATTEPCTDFFKYACGGWLKRNVIPETSSRYGNFDILRDELEVVLKDVLQEPKTEDIVAVQKAKALYRSCINESAIDSRGGEPLLKLLPDIYGWPVATENWEQKYGASWTAEKAIAQLNSKYGKKVLINLFVGTDDKNSVNHVIHIDQPRLGLPSRDYYECTGIYKEACTAYVDFMISVARLIRQEERLPIDENQLALEMNKVMELEKEIANATAKPEDRNDPMLLYNKMTLAQIQNNFSLEINGKPFSWLNFTNEIMSTVNISITNEEDVVVYAPEYLTKLKPILTKYSARDLQNLMSWRFIMDLVSSLSRTYKESRNAFRKALYGTTSETATWRRCANYVNGNMENAVGRLYVEAAFAGESKHVVEDLIAQIREVFIQTLDDLTWMDAETKKRAEEKALAIKERIGYPDDIVSNDNKLNNEYLELNYKEDEYFENIIQNLKFSQSKQLKKLREKVDKDEWISGAAVVNAFYSSGRNQIVFPAGILQPPFFSAQQSNSLNYGGIGMVIGHEITHGFDDNGRNFNKDGDLVDWWTQQSASNFKEQSQCMVYQYGNFSWDLAGGQHLNGINTLGENIADNGGLGQAYRAYQNYIKKNGEEKLLPGLDLNHKQLFFLNFAQVWCGTYRPEYAVNSIKTDVHSPGNFRIIGTLQNSAEFSEAFHCRKNSYMNPEKKCRVW
NEP cleavage (in vitro Assay Data) [4]: Cleavage of -G-F-K- linker was confirmed in NEP assay. | NEP-mediated cleavage, MALDI-TOF MS [4]: At 1 nM NEP, substantial (and in the case of GFK complete) cleavage of the test article was observed by MALDI-TOF MS. | NEP cleavage (in vitro Assay Data) [5]: Cleavage of -G-F-K- linker was confirmed in NEP assay. | NEP cleavage (in vitro Assay Data) [6]: Cleavage of -M-V-K- linker was confirmed in NEP assay. | NEP-mediated cleavage, MALDI-TOF MS [6]: At 1 nM NEP, substantial (and in the case of GFK complete) cleavage of the test article was observed by MALDI-TOF MS. | NEP cleavage (in vitro Assay Data) [7]: Cleavage of -G-F-K- linker was confirmed in NEP assay. | NEP cleavage (in vitro Assay Data) [8]: Cleavage of -G-F-K- linker was confirmed in NEP assay. | NEP-mediated cleavage, NEP titration (10.0 to 0 nM), 37 C 1 h, MALDI-MS [8]: At 10 nM NEP, no intact Indi 7327 remains indicating complete consumption of the peptide. At 1.0 and 0.1 nM NEP, partial cleavage was observed. Below 0.1 nM NEP, no cleavage was observed. | NEP cleavage (in vitro Assay Data) [9]: Cleavage of -G-F-K- linker was confirmed in NEP assay. | NEP cleavage (in vitro Assay Data) [10]: Confirmed to be resistant to NEP cleavage. | NEP cleavage (in vitro Assay Data) [11]: Cleavage of -G-F-K- linker was confirmed in NEP assay. | NEP cleavage (in vitro Assay Data) [12]: Cleavage of -G-F-K- linker was confirmed in NEP assay. | NEP-mediated cleavage, NEP titration, MALDI (10 uM PCC) [12]: At 10 nM NEP, complete consumption of the starting peptide was observed. At 1 nM and 0.1 nM NEP, partial cleavage was observed. Below 0.1 nM no cleavage was observed. | NEP cleavage (in vitro Assay Data) [13]: Confirmed to be resistant to NEP cleavage.

From patent US20240053349A1
